# Reference: PMC8263008, “Inhibition of Fibrinolysis by Streptococcal Phage LysinSM1” (mBio, 2021)
# How the values were obtained:
# [1] = target: purified human fibrinogen (human) (UniProt P02671); assay: ELISA; competition: immobilised fibrinogen (0.1 μM), 0 to 100 μM lysinSM1, lysin102-198 or lysin1-102, and 100 nM plasminogen; bound plasminogen detected with anti-plasminogen antibody
# [2] = target: purified human fibrinogen (human) (UniProt P02671); assay: SPR; Reichert-4 SR7500DC; human fibrinogen (0.1 μM, sodium acetate pH 5.5) covalently immobilised on a PEG gold chip; analytes in PBS, 30 μl/min, 3 min association and dissociation; KD from response at equilibrium against concentration
# [3] = target: MalE-fibrinogen Aα534-610 (variant 8) (human); assay: SPR; lysinSM1, lysin102-198 or plasminogen on recombinant variant 8 (Aα534-610); otherwise as for fibrinogen
# [4] = target: MalE-fibrinogen Aα534-610 (variant 8) (human); assay: ELISA; fibrinogen Aα variants (0.1 μM in PBS) immobilised in 96-well plates; FLAG-lysin or plasminogen in PBS-T over a range of concentrations, 1 h 37°C; anti-FLAG or anti-plasminogen; non-linear regression, apparent KD
# [5] = target: T1, purified human fibrinogen (human, UniProt P02671 36-866; P02675 45-491; P02679 27-453, plasma fibrinogen hexamer (AαBβγ)2, 29 disulfides, glycosylated; fibrinopeptides A and B present; Aα taken as the circulating 610-residue form, Bβ starts at pyroGlu, γ as the major γA form (411 aa)); assay: SPR; Reichert-4 SR7500DC; human fibrinogen (0.1 μM, sodium acetate pH 5.5) covalently immobilised on a PEG gold chip; analytes in PBS, 30 μl/min, 3 min association and dissociation; KD from response at equilibrium against concentration; conditions: both partners purified
# [6] = target: T1, purified human fibrinogen; assay: SPR; plasminogen (100 nM) over immobilised fibrinogen after PBS, and again after bound lysinSM1 was removed with glycine buffer pH 2.0; conditions: both partners purified
# [7] = target: MalE-fibrinogen Aα248-376 (variant 5) (human); assay: ELISA; fibrinogen Aα variants (0.1 μM in PBS) immobilised in 96-well plates; FLAG-lysin or plasminogen in PBS-T over a range of concentrations, 1 h 37°C; anti-FLAG or anti-plasminogen; non-linear regression, apparent KD
# Sequence of purified human fibrinogen (human) (P02671 36-866, chain 1 of 3): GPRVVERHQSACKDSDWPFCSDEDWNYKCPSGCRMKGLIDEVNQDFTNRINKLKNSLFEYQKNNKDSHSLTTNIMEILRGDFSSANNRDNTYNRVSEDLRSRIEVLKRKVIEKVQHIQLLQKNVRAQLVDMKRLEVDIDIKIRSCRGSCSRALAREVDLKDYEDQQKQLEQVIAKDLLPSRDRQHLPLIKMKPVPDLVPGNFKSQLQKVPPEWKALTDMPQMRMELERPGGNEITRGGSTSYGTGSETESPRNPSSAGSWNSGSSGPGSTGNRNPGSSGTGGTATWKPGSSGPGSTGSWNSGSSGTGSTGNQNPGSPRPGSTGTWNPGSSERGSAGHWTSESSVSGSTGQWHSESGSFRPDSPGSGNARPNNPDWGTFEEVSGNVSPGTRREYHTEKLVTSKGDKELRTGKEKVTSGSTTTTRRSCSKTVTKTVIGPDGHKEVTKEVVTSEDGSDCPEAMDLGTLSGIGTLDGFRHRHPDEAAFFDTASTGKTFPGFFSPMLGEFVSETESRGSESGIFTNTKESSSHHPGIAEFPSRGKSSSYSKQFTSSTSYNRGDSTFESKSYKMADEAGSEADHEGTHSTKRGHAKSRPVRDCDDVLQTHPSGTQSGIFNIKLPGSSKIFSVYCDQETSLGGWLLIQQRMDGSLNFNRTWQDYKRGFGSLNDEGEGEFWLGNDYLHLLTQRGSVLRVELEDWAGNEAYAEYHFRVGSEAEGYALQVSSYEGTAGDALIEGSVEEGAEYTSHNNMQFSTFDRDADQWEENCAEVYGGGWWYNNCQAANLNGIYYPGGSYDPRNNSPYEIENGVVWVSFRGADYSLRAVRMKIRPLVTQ
# Sequence of purified human fibrinogen (human) (P02675 45-491, chain 2 of 3, further chain): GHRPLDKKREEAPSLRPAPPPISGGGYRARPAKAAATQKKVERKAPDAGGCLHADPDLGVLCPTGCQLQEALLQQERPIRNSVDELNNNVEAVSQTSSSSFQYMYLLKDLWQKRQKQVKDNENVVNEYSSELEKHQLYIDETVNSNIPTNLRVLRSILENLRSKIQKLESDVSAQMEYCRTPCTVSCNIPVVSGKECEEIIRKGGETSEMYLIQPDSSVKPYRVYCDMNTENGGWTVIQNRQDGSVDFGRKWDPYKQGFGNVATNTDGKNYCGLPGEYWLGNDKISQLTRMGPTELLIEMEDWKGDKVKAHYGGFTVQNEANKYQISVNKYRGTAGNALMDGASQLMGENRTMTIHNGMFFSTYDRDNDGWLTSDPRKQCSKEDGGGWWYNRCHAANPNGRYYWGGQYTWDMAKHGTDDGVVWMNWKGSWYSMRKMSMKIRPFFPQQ
# Sequence of purified human fibrinogen (human) (P02679 27-453, chain 3 of 3, further chain): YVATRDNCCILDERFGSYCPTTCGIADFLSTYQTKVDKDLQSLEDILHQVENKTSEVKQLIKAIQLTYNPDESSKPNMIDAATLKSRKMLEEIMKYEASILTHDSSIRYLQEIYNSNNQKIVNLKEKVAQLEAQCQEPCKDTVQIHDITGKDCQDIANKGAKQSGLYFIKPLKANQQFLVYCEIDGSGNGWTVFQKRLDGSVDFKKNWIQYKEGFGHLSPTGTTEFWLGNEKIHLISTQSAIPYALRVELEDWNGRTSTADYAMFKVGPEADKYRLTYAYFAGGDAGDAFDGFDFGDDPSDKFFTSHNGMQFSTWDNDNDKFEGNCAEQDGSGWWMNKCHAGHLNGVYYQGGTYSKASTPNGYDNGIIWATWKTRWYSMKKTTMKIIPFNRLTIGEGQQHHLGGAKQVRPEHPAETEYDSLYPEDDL
# T1 sequence (P02671 36-866, chain 1 of 3): as the sequence (P02671 36-866, chain 1 of 3) above
# T1 sequence (P02675 45-491, chain 2 of 3): as the sequence (P02675 45-491, chain 2 of 3, further chain) above
# T1 sequence (P02679 27-453, chain 3 of 3): as the sequence (P02679 27-453, chain 3 of 3, further chain) above
Molecule,percent inhibition of plasminogen binding to immobilised fibrinogen [1] [%],Kd [2] [µM],Kd [3] [µM],Kd [4] [µM],Kd [5] [µM],KD after bound lysinSM1 was removed with glycine buffer pH 2.0 [6] [M],Kd [6] [µM],Kd [7] [µM]
FLAG-tagged lysin102-198 (domain or fragment),> 75,23.2,17.3,48,,,,
recombinant FLAG-tagged lysinSM1 (natural protein),> 75,31.5,32.3,,,,,
"human plasminogen (natural protein, UniProt P00747 20-810, looked up, plasminogen, human; also called purified plasminogen; recombinant human plasminogen) EPLDDYVNTQGASLFSVTKKQLGAGSIEECAAKCEEDEEFTCRAFQYHSKEQQCVIMAENRKSSIIIRMRDVVLFEKKVYLSECKTGNGKNYRGTMSKTKNGITCQKWSSTSPHRPRFSPATHPSEGLEENYCRNPDNDPQGPWCYTTDPEKRYDYCDILECEEECMHCSGENYDGKISKTMSGLECQAWDSQSPHAHGYIPSKFPNKNLKKNYCRNPDRELRPWCFTTDPNKRWELCDIPRCTTPPPSSGPTYQCLKGTGENYRGNVAVTVSGHTCQHWSAQTPHTHNRTPENFPCKNLDENYCRNPDGKRAPWCHTTNSQVRWEYCKIPSCDSSPVSTEQLAPTAPPELTPVVQDCYHGDGQSYRGTSSTTTTGKKCQSWSSMTPHRHQKTPENYPNAGLTMNYCRNPDADKGPWCFTTDPSVRWEYCNLKKCSGTEASVVAPPPVVLLPDVETPSEEDCMFGNGKGYRGKRATTVTGTPCQDWAAQEPHRHSIFTPETNPRAGLEKNYCRNPDGDVGGPWCYTTNPRKLYDYCDVPQCAAPSFDCGKPQVEPKKCPGRVVGGCVAHPHSWPWQVSLRTRFGMHFCGGTLISPEWVLTAAHCLEKSPRPSSYKVILGAHQEVNLEPHVQEIEVSRLFLEPTRKDIALLKLSSPAVITDKVIPACLPSPNYVVADRTECFITGWGETQGTFGAGLLKEAQLPVIENKVCNRYEFLNGRVQSTELCAGHLAGGTDSCQGDSGGPLVCFEKDKYILQGVTSWGLGCARPNKPGVYVRVSRFVTWIEGVMRNN",,,17.2,18,10.4,1.68e-05,19.2,85
